Test results reported in publication PMC2635643, “Improving the Stability of Insulin in Solutions Containing Intestinal Proteases in Vitro” (International Journal of Molecular Sciences, 2008).

Experiments:
[1] = UV absorption spectra of insulin in different solutions; type: physicochemical; details: Table 1, UV absorption at 275 nm; insulin 100 μg/mL, casein 200 μg/mL, HP-β-CD 1 mg/mL (Figure 6A)
Protocol: Absorption spectra were recorded on a Shimadzu UV-2450 spectrophotometer. The absorption spectra were carried out according to Kano et al..

[2] = system: α-chymotrypsin; test: Degradation of insulin induced by α-chymotrypsin (remaining insulin by HPLC and PAGE); type: in vitro ADME
Protocol: (§1) HPLC was carried out according to Todo et al. with minor modifications. Analyses of remaining insulin were carried out by reserve phase HPLC with an isocratic system (Shimadzu Co., Kyoto) using the raw insulin bulk drug as the standard (28 IU/mg). The HPLC system was composed of a pump (LC-10ADvp), diode array detector (SPD-M10Avp), column oven (CTO-10ASvp), and LC workstation (CLASS-LC10). The mobile phase was a 72:28 mixture of 0.2 mol/L sodium sulphate buffer (pH 3.0) and acetonitrile at a flow rate of 1.0 mL/min. The column was a Shodex Asahipak ODP-50 6D (4.6mm × 150 mm, 5 um) (Showa Denko, Ltd., Tokyo) heated at room temperature. Ultraviolet absorption was measured at 214 nm.
(§2) PAGE was carried out according to Laemmli with minor modifications. The running gel, stacking gel and electrode buffer are without sodium dodecyl sulfate (SDS). The running gel and stacking gel contained 15% and 4.5% acrylamide, respectively. After electrophoresis, the gels were subjected to stain with Coomassie Brilliant R-250.
(§3) Insulin was dissolved in a few drops of 0.05 mol/L HCL, then 0.05 mol/L PBS (phosphate buffer, pH=7.0) was added. α-Chymotrypsin (5 mg/mL) and trypsin (12 mg/mL) solutions were prepared with Tris-HCL buffer (pH=8.0), respectively. Casein (5 g) was dissolved in 0.1 mol/L NaOH (10 mL), then was diluted to 100 mL with PBS (pH=7.0), The pH of final concentration was again measured and adjusted to pH 7.0. 5% Protamine solution was prepared with PBS (pH=7.0). Insulin solution and enzyme solutions were incubated at 37 °C for 15 min. Different treatments were administered. The final concentration of insulin in the solution was 0.5 mg/mL. The final mass ratios in the solution were as following, insulin:HP-β-CD = 1 :30; insulin:casein = 1:10; insulin:protamine = 1:10; insulin:casein or protamine:HP-β-CD = 1:10:30. Before the addition of a-chymotrypsin solution, insulin solution was vortexed at high speed for 5 s and a sample was withdrawn and added with ice-cold 0.5% TFA acid as the zero time sample. Samples were withdrawn for 15, 30, 45 and 60 min after the addition of the enzyme solution at 37 °C. The final enzyme concentrations of α-chymotrypsin and trypsin were 8 mg/L [29] and 600 mg/L [21], respectively. Then the samples were analyzed by PAGE and HPLC after adding 50 μl of ice-cold 0.5% TFA acid to terminate the reaction. Every experiment was carried out three times. The average and the standard deviation of the data were calculated.

[3] = system: trypsin; test: Degradation of insulin induced by trypsin (remaining insulin by HPLC and PAGE); type: in vitro ADME
Protocol: as §1, §2, §3

Row | Substance | ΔA275 [1] | insulin detected (remaining) against α-chymotrypsin, treated with HP-β-CD ([2]; insulin 0.5 mg/mL, insulin:HP-β-CD = 1:30 (mass), α-chymotrypsin 8 mg/L, PBS pH 7.0, 37 °C, sampling 0-60 min, HPLC UV 214 nm, mean of n=3, P>0.05 vs insulin alone) | insulin remained undegraded against α-chymotrypsin, treated with casein ([2]; insulin 0.5 mg/mL, insulin:casein = 1:10 (mass), α-chymotrypsin 8 mg/L, PBS pH 7.0, 37 °C, sampling 0-60 min, HPLC UV 214 nm, mean of n=3, P<0.01 vs insulin alone) | insulin remained undegraded against α-chymotrypsin, co-incubated with HP-β-CD and casein ([2]; insulin 0.5 mg/mL, insulin:casein:HP-β-CD = 1:10:30 (mass), α-chymotrypsin 8 mg/L, PBS pH 7.0, 37 °C, sampling 0-60 min, HPLC UV 214 nm, mean of n=3, P<0.001 vs insulin alone) | remaining insulin against α-chymotrypsin ([2]; insulin alone 0.5 mg/mL, α-chymotrypsin 8 mg/L, PBS pH 7.0, 37 °C, after 60 min, 15 min pre-incubation, HPLC UV 214 nm and PAGE, n=3) | remained insulin against α-chymotrypsin in the solution containing casein and protamine ([2]; insulin with casein and protamine, α-chymotrypsin, 37 °C, data not shown) | degradation of insulin by trypsin, treated with HP-β-CD ([3]; insulin 0.5 mg/mL, insulin:HP-β-CD = 1:30 (mass), trypsin 600 mg/L, PBS pH 7.0, 37 °C, 0-60 min, n=3, P>0.05 vs insulin alone) | degradation of insulin by trypsin in the presence of protamine ([3]; insulin 0.5 mg/mL, insulin:protamine = 1:10 (mass), trypsin 600 mg/L, PBS pH 7.0, 37 °C, 0-60 min, n=3, P<0.05 vs insulin alone) | insulin detected (remaining) against trypsin, co-incubated with HP-β-CD and protamine ([3]; insulin 0.5 mg/mL, insulin:protamine:HP-β-CD = 1:10:30 (mass), trypsin 600 mg/L, PBS pH 7.0, 37 °C, at 60 min, HPLC UV 214 nm, mean of n=3, P<0.01 vs insulin alone) | insulin remained against trypsin ([3]; insulin alone 0.5 mg/mL, trypsin 600 mg/L, PBS pH 7.0, 37 °C, after 60 min, 15 min pre-incubation, HPLC UV 214 nm, mean of n=3) | remaining insulin against trypsin in the solution containing casein and protamine ([3]; insulin with casein and protamine, trypsin, 37 °C, data not shown)
1 | Casein | 0.219 | – | – | – | – | – | – | – | – | – | –
2 | Insulin | 0.098 | About 25% | about 45% | About 80% | most of insulin was degraded | almost equal to that in the solution containing casein | partly inhibited | significantly decreased | about 70% | about 15% | almost equal to that in the solution containing protamine
